Results: FireProtDB (doi:10.1016/s0301-4622(02)00027-3)

B1: Endoglucanase C, P0C2S3 (parent)
chain: MVSFKAGINLGGWISQYQVFSKEHFDTFITEKDIETIAEAGFDHVRLPFDYPIIESDDNVGEYKEDGLSYIDRCLEWCKKYNLGLVLDMHHAPGYRFQDFKTSTLFEDPNQQKRFVDIWRFLAKRYINEREHIAFELLNEVVEPDSTRWNKLMLEYIKAIREIDSTMWLYIGGNNYNSPDELKNLADIDDDYIVYNFHFYNPFFFTHQKAHWSESAMAYNRTVKYPGQYEGIEEFVKNNPKYSFMMELNNLKLNKELLRKDLKPAIEFREKKKCKLYCGEFGVIAIADLESRIKWHEDYISLLEEYDIGGAVWNYKKMDFEIYNEDRKPVSQELVNILARRKT

Variants of: B1
Conditions: Acetivibrio thermocellus, pH 7.2, structure 1CEC, whole UniProt chain shown; for Tm / change of melting temperature, mutant - wild type (higher = more stable): Thermal, DSC, Tris 20 mM, reversible: No
[1] = 25 °C, GdnHCl, CD, Tris 50 mM, reversible: yes

| Variant | Tm [°C] | change of melting temperature, mutant - wild type (higher = more stable) [°C] | ddG of mutation (higher = less stable) [1] [kcal/mol] | denaturant midpoint (higher = more stable) [1] [M] | unfolding free energy [1] [kcal/mol] |
| --- | --- | --- | --- | --- | --- |
| N9D | 63.9 | -6.5 | – | – | – |
| I293A | 67.6 | -2.8 | – | – | – |
| N220D T222A | 68.3 | -2.1 | – | – | – |
| A6C R340C | 73.4 | – | -1.73 | 2.61 | 8.03 |
| E333G | 69.4 | -1 | – | – | – |
